Results taken from paper PMC4233170.

Biological target: FLAG-tagged Rrn3 purified from infected Sf9 cells (not stated (human or mouse cDNA cloned)) (UniProt Q9NYV6)
UniProt Q9NYV6, sequence (Q9NYV6 whole entry): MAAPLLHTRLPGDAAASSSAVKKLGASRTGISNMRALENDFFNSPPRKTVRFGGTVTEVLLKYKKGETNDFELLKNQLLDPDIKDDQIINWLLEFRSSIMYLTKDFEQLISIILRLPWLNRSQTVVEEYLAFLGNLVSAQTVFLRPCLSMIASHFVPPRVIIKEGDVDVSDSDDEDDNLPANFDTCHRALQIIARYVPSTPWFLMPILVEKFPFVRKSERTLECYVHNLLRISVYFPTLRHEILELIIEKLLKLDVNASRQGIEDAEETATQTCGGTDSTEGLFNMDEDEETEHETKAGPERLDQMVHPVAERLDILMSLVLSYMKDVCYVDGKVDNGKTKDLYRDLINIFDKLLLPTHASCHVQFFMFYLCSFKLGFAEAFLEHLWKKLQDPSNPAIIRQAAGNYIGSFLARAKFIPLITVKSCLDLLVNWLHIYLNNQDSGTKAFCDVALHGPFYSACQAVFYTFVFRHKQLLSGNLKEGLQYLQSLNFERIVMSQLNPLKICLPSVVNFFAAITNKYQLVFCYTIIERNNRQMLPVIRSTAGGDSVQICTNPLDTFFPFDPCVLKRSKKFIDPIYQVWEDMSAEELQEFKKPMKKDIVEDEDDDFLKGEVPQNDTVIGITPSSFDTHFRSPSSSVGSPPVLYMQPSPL

With GGGRKKRRQRRRNKVSSSHIGCLVHGCFNASIPK [TAT-22mer: HIV TAT based cell penetrating peptide coupled to the 22mer of rpa43] the labelling of the 47/45S pre-rRNA precursor in N1S1 cells treated with TAT-22mer was 70 % inhibition.
